Paper PMC4245140, “Towards Engineering Hormone-Binding Globulins as Drug Delivery Agents” (PLoS ONE, 2014)
Where two headings read alike, the source gives them in different places.

T1: human neutrophil elastase (Homo sapiens, UniProt P08246)
T1 sequence (P08246 30-267): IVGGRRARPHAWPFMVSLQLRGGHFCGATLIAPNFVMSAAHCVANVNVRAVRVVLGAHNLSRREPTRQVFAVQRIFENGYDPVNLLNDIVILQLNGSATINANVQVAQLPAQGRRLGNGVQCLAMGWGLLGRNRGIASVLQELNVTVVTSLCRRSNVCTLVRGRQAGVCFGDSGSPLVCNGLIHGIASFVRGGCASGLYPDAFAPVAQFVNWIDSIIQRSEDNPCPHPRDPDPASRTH

B1: CBG-T349R: Human CBG with P1 threonine of reactive centre loop mutated to arginine (protein, UniProt P08185 23-405, looked up, variant T349R)
Corticosteroid-binding …: MDPNAAYVNMSNHHRGLASANVDFAFSLYKHLVALSPKKNIFISPVSISMALAMLSLGTCGHTRAQLLQGLGFNLTERSETEIHQGFQHLHQLFAKSDTSLEMTMGNALFLDGSLELLESFSADIKHYYESEVLAMNFQDWATASRQINSYVKNKTQGKIVDLFSGLDSPAILVLVNYIFFKGTWTQPFDLASTREENFYVDETTVVKVPMMLQSSTISYLHDSELPCQLVQMNYVGNGTVFFILPDKGKMNTVIAALSRDTINRWSAGLTSSQVDLYIPKVTISGVYDLGDVLEEMGIADLFTNQANFSRITQDAQLKSSKVVHKAVLQLNEEGVDTAGSTGVTLNLRSKPIILRFNQPFIIMIFDHFTWSSLFLARVMNPV
B2: wild-type: Recombinant wild type human corticosteroid binding globulin expressed in E. coli (protein, UniProt P08185 23-405, looked up)
Corticosteroid-binding …: MDPNAAYVNMSNHHRGLASANVDFAFSLYKHLVALSPKKNIFISPVSISMALAMLSLGTCGHTRAQLLQGLGFNLTERSETEIHQGFQHLHQLFAKSDTSLEMTMGNALFLDGSLELLESFSADIKHYYESEVLAMNFQDWATASRQINSYVKNKTQGKIVDLFSGLDSPAILVLVNYIFFKGTWTQPFDLASTREENFYVDETTVVKVPMMLQSSTISYLHDSELPCQLVQMNYVGNGTVFFILPDKGKMNTVIAALSRDTINRWSAGLTSSQVDLYIPKVTISGVYDLGDVLEEMGIADLFTNQANFSRITQDAQLKSSKVVHKAVLQLNEEGVDTAGSTGVTLNLTSKPIILRFNQPFIIMIFDHFTWSSLFLARVMNPV
modifications: expressed in E. coli

Key:
thrombin = target: T2, thrombin (Homo sapiens, UniProt P00734); test: Protease cleavage assay (SDS-PAGE) with thrombin; format: biochemical; conditions: protease:CBG 1:100, 37°C, half an hour
T2 construct: causes the zymogen, prothrombin, to be cleaved to produce enzymatically-active thrombin
Procedure: (§1) To determine if a particular target protease is able to cleave the reactive centre loop of an engineered CBG variant, the protease was incubated with CBG at a molar ratio of 1∶100 at 37°C for half an hour unless otherwise specified. Reactive loop cleavage is marked by a characteristic 4 kDa change in molecular weight following release of a peptide when the R-state CBG is unfolded, such as when it is subjected to the denaturing conditions of an SDS-PAGE [14], [22]. We used this as a convenient means by which to check the engineered protein's protease specificity and, as a corollary, its site specificity.

[1] = target: T1, human neutrophil elastase; test: Protease cleavage assay (SDS-PAGE) with human neutrophil elastase; format: biochemical; conditions: protease:CBG 1:100, 37°C
Procedure: as §1

[2] = target: prostate specific antigen (PSA) (Homo sapiens, UniProt P07288); test: Protease cleavage assay (SDS-PAGE) with prostate specific antigen; format: biochemical; conditions: incubation 2-72 hours
Sequence of prostate specific antigen (PSA) (P07288 25-261): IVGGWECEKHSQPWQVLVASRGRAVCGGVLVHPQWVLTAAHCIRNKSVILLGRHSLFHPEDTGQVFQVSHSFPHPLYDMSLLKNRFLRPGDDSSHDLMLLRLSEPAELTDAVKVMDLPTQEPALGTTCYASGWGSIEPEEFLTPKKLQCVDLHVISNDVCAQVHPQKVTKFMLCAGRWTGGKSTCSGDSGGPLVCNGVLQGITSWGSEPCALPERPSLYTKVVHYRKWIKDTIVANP
Description: Reactive loop cleavage is marked by a characteristic 4 kDa change in molecular weight following release of a peptide when the R-state CBG is unfolded, such as when it is subjected to the denaturing conditions of an SDS-PAGE [14], [22]. We used this as a convenient means by which to check the engineered protein's protease specificity and, as a corollary, its site specificity.

[3] = Fluorimetric titration (intrinsic fluorescence quenching) of CBG with cortisol; format: binding; conditions: physiological temperature (37°C)
Procedure: CBG is known to bind cortisol with a one-to-one stoichiometry, [19]. Therefore, the dissociation constant, which is a measure of binding affinity, is given by the following equation: [drawing 1] (1) where [E]f is the concentration of free CBG, [L]f is the concentration of free ligand, and [E·L] is the concentration of the CBG-ligand complex.
(§2) Fluorescence spectroscopy was used to study the CBG-ligand interactions. Experiments were performed on an LS55 120V fluorescence spectrometer (Perkin Elmer), and the data were read and recorded using their proprietary FL WinLab software. For binding studies of CBG with cortisol, the excitation wavelength was set at 280 nm and the emission was detected at 350 nm, with a 315 nm cut-off filter used to prevent the excitation laser from leaching into the emission channel. For the binding studies of engineered CBG with L-T4-thyroxine-6-carboxyfluorescein, the excitation wavelength was set at 495 nm and emission was recorded at 520 nm whilst applying a 515 nm cut-off filter.
The cortisol stock solution was prepared by dissolving lyophilised cortisol (Sigma Aldrich) in 80% ethanol to make a 500 µM solution, which was then diluted with water to make solutions of 20, 40 and 80 µM, with water being used as a negative control. Aliquots of the ligand solutions were then titrated into 800 µl of a 200 nM solution of CBG made by diluting the protein stock with a buffer containing 10 mM Tris-HCl, pH 7.4, 150 mM NaCl, 1 mM EDTA, 0.1% v/v PEG 8000, and the decrease in fluorescence due to quenching was measured.
(§3) In both cases, the data were fitted using Prism 5 (GraphPad Software) to the following equation to obtain the dissociation constant, Kd: [drawing 2] (2) where ΔF is the fluorescence change, ΔFM is the maximum change in fluorescence signal, [L]t is the total concentration of ligand added and [E]t is the total protein concentration.

[4] = Fluorimetric titration of L-T4-thyroxine-6-carboxyfluorescein with engineered CBG; format: binding
Procedure: as §2
L-T4-thyroxine-6-carboxyfluorescein was previously synthesised and purified as a 1.09 µM solution with acetonitrile as its solvent. This was diluted into a 5 nM solution with a buffer containing 10 mM Tris-HCl, pH 7.4, 150 mM NaCl, 1 mM EDTA, 0.1% v/v PEG 8000. Aliquots of the engineered CBG were titrated into 800 µl of this solution, and increments in fluorescence signal were monitored.
as §3

[5] = parameters: method as in PMID 23783094; conditions: recombinantly expressed wild type CBG; cited from earlier work

Molecule	Cleavage of reactive centre loop by thrombin (thrombin)	Cleavage of reactive centre loop by thrombin (thrombin; listed as CBG-Thr349Arg)	Cleavage by human neutrophil elastase [1]	Cleavage of reactive centre loop by PSA [2]	Kd ([3]; intact S-state, read-out: Kd for cortisol, S (uncleaved) conformation) [nM]	Fold change in Kd (cortisol) on reactive centre loop cleavage, S to R ([3]; disulphide mutants in absence of TCEP) [fold]	Kd ([3]; reactive centre loop-cleaved R-state, read-out: Kd for cortisol, R (cleaved) conformation) [nM]	Affinity for L-thyroxine-6-carboxyfluorescein [4]	Fold decrease in affinity for cortisol upon cleavage of reactive centre loop [5] [fold]
B1	same susceptibility to cleavage by thrombin as the CBG-antitrypsinPittsburgh chimera	successfully cleaved by thrombin	further engineering would be required to remove elastase cleavage						
B2	remained unreactive			no evidence of reactive centre loop cleavage	279 ± 18	2.6	734 ± 48	no affinity	2.6
